Data reported in US20260258147A1 (Merck Sharp & Dohme, published 2026).

T1: membrane-bound rhesus MSLN (Rhesus (Macaca mulatta))
T1 construct: The expressed construct is not described further; also called Rh MSLN-CHOK1; RhMSLN
T1 chain: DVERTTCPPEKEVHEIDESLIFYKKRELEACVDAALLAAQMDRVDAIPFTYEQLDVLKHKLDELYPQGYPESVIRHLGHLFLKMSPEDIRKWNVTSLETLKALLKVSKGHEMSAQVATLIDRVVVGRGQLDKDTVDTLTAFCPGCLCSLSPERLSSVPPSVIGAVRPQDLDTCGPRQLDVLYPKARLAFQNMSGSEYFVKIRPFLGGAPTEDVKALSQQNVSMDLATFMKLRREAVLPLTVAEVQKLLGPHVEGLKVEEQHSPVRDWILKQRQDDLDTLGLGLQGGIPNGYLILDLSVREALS

T2: soluble rhesus MSLN (87BIC) (Rhesus (Macaca mulatta))
T2 construct: Purified soluble protein coated on the ELISA plate; also called Rh MSLN (87BIC); purified rhesus MSLN
T2 chain: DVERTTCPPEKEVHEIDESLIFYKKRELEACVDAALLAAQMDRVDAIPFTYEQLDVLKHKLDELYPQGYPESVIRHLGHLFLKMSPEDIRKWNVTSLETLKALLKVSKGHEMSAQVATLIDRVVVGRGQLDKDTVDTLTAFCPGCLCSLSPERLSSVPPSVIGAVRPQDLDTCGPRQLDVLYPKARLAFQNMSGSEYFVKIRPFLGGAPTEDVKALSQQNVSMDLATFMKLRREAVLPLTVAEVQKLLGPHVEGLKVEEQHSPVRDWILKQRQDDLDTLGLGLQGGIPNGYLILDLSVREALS


Columns and labels:
[1] = biological target: T3, membrane-bound human MSLN (human, UniProt Q13421 296-598); assay: cell ELISA, CHOK1 cells expressing human MSLN
T3 construct: the assay field says which; The construct expressed in CHOK1 is not described further; also called HuMSLN-CHOK1; human mesothelin on CHOK1 cells
T3 sequence (Q13421 other isoform, or with tags, fused parts or gaps limits assumed): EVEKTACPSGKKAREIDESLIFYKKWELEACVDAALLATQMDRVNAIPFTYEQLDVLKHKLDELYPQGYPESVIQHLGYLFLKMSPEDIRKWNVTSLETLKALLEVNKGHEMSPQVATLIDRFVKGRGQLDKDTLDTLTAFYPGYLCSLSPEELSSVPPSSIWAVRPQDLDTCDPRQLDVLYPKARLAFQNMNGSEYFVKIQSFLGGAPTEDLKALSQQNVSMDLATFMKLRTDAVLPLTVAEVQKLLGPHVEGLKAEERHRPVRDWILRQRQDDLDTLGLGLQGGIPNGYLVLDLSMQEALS
Protocol: (§1) The wells of a 96-well plate are seeded with sufficient cells to provide 95-100% confluency on day 0 (the day of assay). On day 0 the culture medium is removed and 50 μL/well hybridoma supernatant fraction, or purified antibody starting at 10 μg/mL or equal molar concentration and serially diluted 4 or 5-fold in CHO medium (DMEM F12, 10% Bovine serum). The plate is then incubated for an hour at room temperature or a temperature up to 37° C. Next, about 50 μL of a pre-determined concentration of ligand is added to the wells of the plate and the plate incubated for 30 minutes at room temperature or a temperature up to 37° C. The plate wells are washed with ELISA wash (PBS containing 0.05% polysorbate 20. Next, 50 μL/well of HRP-conjugated anti-species IgG diluted 1:2000 in CHO medium is added to the wells and the plate incubated for an hour at room temperature or a temperature up to 37° C. HRP conjugated anti-species IgG include goat anti-mouse IgG-HRP (Southern Biotech, cat #1030-05), goat anti-rat IgG-HRP (Southern Biotech, cat #3030-05), and goat anti-human IgG-HRP (Jackson Immunologics, cat #109-036-098). The plate wells are washed with the ELISA wash. Next, 50 μL/well TMB substrate (1 step Ultra TMB-ELISA: Thermo Fisher, Cat #34029) is added to the wells. When the blank starts to turn blue, 50 μL/well TMB stop solution (KPL, Cat #50-85-06) is added to the wells and A450-A620 is measured on an ELISA reader.
(§2) The OVACAR3 cell line is a human ovarian cancer cell line that expresses high levels of human MSLN.

[2] = biological target: T1, membrane-bound rhesus MSLN; assay: cell ELISA, CHOK1 cells expressing rhesus MSLN
Protocol: as §1, §2

[3] = biological target: T3, membrane-bound human MSLN; assay: cell ELISA, OVCAR3 cells (endogenous human MSLN)
[4] = biological target: T4, soluble human MSLN (87BGR) (human, UniProt Q13421 296-598); assay: protein ELISA, coated soluble human MSLN (87BGR)
T4 construct: Purified soluble protein coated on the ELISA plate; also called HuMSLN (87BGR); purified human MSLN
T4 sequence (Q13421 other isoform, or with tags, fused parts or gaps limits assumed, form in doubt): as the sequence (Q13421 other isoform, or with tags, fused parts or gaps limits assumed) above
Protocol: (§3) The wells of a 96-well plate are coated with 50 μL of purified human or rhesus MSLN in a carbonate coating buffer (5.3 g NaHCO₃ and 3.2 g Na₂CO₃ in 2 L H₂0) or HyClone Dulbecco's phosphate buffered saline (DPBS; Hyclone, cat #SH30028.02) at a concentration of 1-2 μg/mL and incubated overnight at 4° C. Afterwards, the plate wells are washed with well wash solution (phosphate buffered saline containing 0.05% polysorbate 20). The plate wells are then blocked by adding Super Block Blocking Buffer T20 (Thermo Scientific, #37536) for 1-2 hours at room temperature followed by washing with well wash solution. Next, 50 μL/well hybridoma supernatant fraction (used neat), or purified antibody starting at 10 μg/mL and serially diluted 4- or 5-fold in ELISA buffer (DPBS+0.1% BSA+0.05% polysorbate 20 is added to the wells. The plates are incubated for an hour at room temperature, then the wells washed with well wash solution and 50 μL/well horseradish […] (HRP) conjugated anti-species IgG diluted 1:3000-5000 in ELISA buffer is added to the wells. HRP conjugated anti-species IgG include goat anti-mouse IgG-HRP (Southern Biotech, cat #1030-05), goat anti-rat IgG-HRP (Southern Biotech, cat #3030-05), and goat anti-human IgG-HRP (Jackson Immunologics, cat #109-036-098). The plates are incubated for an hour at room temperature, then the wells washed with well wash and 50 μL/well ABTS Peroxidase Substrate (Kirkgaard & Perry Laboratories) is added to the wells. After 10 minutes the OD at 405 nm is measured using an ELISA plate reader.
as §2

[5] = biological target: T2, soluble rhesus MSLN (87BIC); assay: protein ELISA, coated soluble rhesus MSLN (87BIC)
Protocol: as §3, §2

| Binder | EC50 [1] [µg/mL] | EC50 [2] [µg/mL] | EC50 [3] [µg/mL] | EC50 [4] [µg/mL] | EC50 [5] [µg/mL] | binding result [2] |
| --- | --- | --- | --- | --- | --- | --- |
| SV017.47D7.1C2 (antibody, V domains shown, also called antibody from hybridoma clone SV017.47D7.1C2) VH: EVQLVESGGGLVQPGGSLRLSCAATGFTFSSYWMHWVRQGPGKGLVWVSRINSDGTSTVYADSVKGRFTISRDNAKNTLYLQMNSLRAEDTAVYYCARGRGIMTYWGQGTLVTVSS VL: DIQMTQSPSSLSASVGDRVTITCRASQDIGSWLTWYQRKPEKAPKSLIYAASSLQSGVPSRFSGSGSGTDFTLTISSLQPEDFATYYCQQYKSYPLTFGQGAKLEIK | 0.03 | 0.26 | 0.01 | 0.03 | 0.01 | – |
| SV017.51F4.1A1 (antibody, V domains shown, also called antibody from hybridoma clone SV017.51F4.1A1) VH: EVQLVESGGGLVQPGGSLRLSCAATGFTFSSYWMHWVRQGPGKGLVWVSRINSDGTSTVYADSVKGRFTISRDNAKNTLYLQMNSLRAEDTAVYYCARGRGIMTYWGQGTLVTVSS VL: DIQMTQSPSSLSASVGDRVTITCRASQDIGSWLTWYQRKPEKAPKSLIYAASSLQSGVPSRFSGSGSGTDFTLTISSLQPEDFATYYCQQYKSYPLTFGQGAKLEIK | 0.04 | 0.26 | 0.01 | 0.03 | 0.02 | – |
| SV017.13B12.1E1 (antibody, V domains shown, also called antibody from hybridoma clone SV017.13B12.1E1) VH: EVQLVESGGGLVQPGGSLRLSCAATGFTFSSYWMHWVRQGPGKGLVWVSRINSDGTSTVYADSVKGRFTISRDNAKNTLHLQMNSLRAEDTAVYYCARGRGIMTYWGQGTLVTVSS VL: DIQMTQSPSSLSASVGDRVTITCRASQDIGSWLTWYQRKPEKAPKSLIYAASSLQSGVPSRFSGSGSGTDFTLTISSLQPEDFATYYCQQYKSYPLTFGQGAKLEIK | 0.02 | 0.23 | 0.01 | 0.04 | 0.02 | – |
| SV017.50G3.1B1 (antibody, V domains shown, also called antibody from hybridoma clone SV017.50G3.1B1) VH: EVQLVESGGGLVQPGESLRLSCAATGFTFSSYWMHWVRQGPGKGLVWVSRINSDGTSTVYADSVKGRFTISRDNAKNTLFLQMNSLRAEDTAVYYCARGRGIMTYWGQGTLVTVSS VL: DIQMTQSPSSLSASVGDRVTITCRASQDIGSWLTWYQRKPEKAPKSLIYAASSLQSGVPSRFSGSGSGTDFTLTISSLQPEDFATYYCQQYKSYPLTFGQGAKLEIK | 0.05 | 0.33 | 0.01 | 0.04 | 0.02 | – |

Further lines, results first:

| EC50 [1] [µg/mL] | EC50 [2] [µg/mL] | EC50 [3] [µg/mL] | EC50 [4] [µg/mL] | EC50 [5] [µg/mL] | binding result [2] | Binder |
| --- | --- | --- | --- | --- | --- | --- |
| 0.01 | – | 0.01 | 0.11 | – | no binding | SV018.20B12.1D1 (antibody, V domains shown, also called antibody from hybridoma clone SV018.20B12.1D1) VH: QVQLQESGPGLVKPSETLSLTCTVSGGSISSYYWSWIRQPPGKGLEWIGYIYYSGSTNYNPSLKSRVTISVDTSKNQFSLKLSSVTAADTAVYYCARTGYIPMDVWGQGTTVTVSS VL: EIVLTQSPDFQSVTPKEKVTITCRASQSIGSNLHWYQQKPDQSPKLLIKYVSQSFSGVPSRFSGSGSGTDFTLTINSLEAEDAATYYCHQSRSLPYTFGQGTKLEIK |
| 0.01 | – | – | 1.37 | – | no binding | SV018.45B6.1G1 (antibody, V domains shown, also called SV018.45.1G1) VH: QVQLLQSGAEVKKPGASVKVSCKASGYTFTTYGISWVRQAPGQGLEWLGWITAYNRNTNYAQKLQGRVTMTTDTSTSTSFMVLRSLRSDDTAVYYCARVGDSDAFDIWGQGTMVTVSS VL: EIVMTQSPATLSLSPGERATLSCRTSQSVFNSFLSWYQQKPGQAPRLLLYGTSTRATGIPARFSGSGSGTDFTLTISSLQPEDFAVYYCQQDYKLPLTFGGGTKVEIK |
